Laboratory results: patent US20140050720A1, “ULTRALONG COMPLEMENTARITY DETERMINING REGIONS AND USES THEREOF” (THE SCRIPPS RESEARCH INSTITUTE, priority 2012, published 2014)
“Also recorded” adds a separate entry of the source.

Tests used:
[1] = system: Human mPB CD34+ cells; assay: Proliferative activity on human granulocyte progenitors (flow cytometry); type: cell-based; conditions: 7 days
Protocol: Human mPB CD34^+ cells were purchased from AllCells. Cells were resuspended in HSC expansion medium (StemSpan SFEM, StemCell Technologies) supplemented with 1× antibiotics and the following recombinant human cytokines thrombopoietin, IL6, Flt3 ligand, and stem cell factor (100 ng/mL, R & D Systems), then plated in 96-well plates (1000 cells per well), with varied concentrations of BLV1H12-bGCSF fusion antibodies. Cells were cultured for 7 days at 37° C. in a 5% CO2 incubator, then analyzed by flow cytometry to measure cell number and expression of CD45ra and CD41. Cells were stained in staining medium (HBSS supplemented with 2% FBS and 2 mM EDTA) at 4° C. for 1 h with PECy7 anti-CD45ra and eFluor 450 anti-CD41 (eBiosciences), then washed with staining medium and analyzed. Multicolor analysis for cell phenotyping was performed on a LSR II flow cytometer (Becton Dickinson). FIGS. 10A-10E and Tables 9-10 show the human granulocyte progenitor cell proliferative activities of the Ab-GCSF fusion antibodies.

[2] = Pharmacokinetics of BLV1H12-bGCSF fusion antibodies in mice; type: in vivo; conditions: BALB/c mice, 70 μg injected
Protocol: For PK study in mice, 70 μg of the immunoglobulin constructs described herein were injected into 3 BALB/c mice per group. Blood samples were drawn from time 0 to 14 days with extended intervals and analyzed by ELISA using anti-human IgG Fc antibody with horseradish peroxidase (HRP) labeled (KPL) and anti-6×His antibody with HRP labeled (Clontech). Data were normalized by taking maximal concentration at the first time point (30 min).

[3] = system: mice neutrophils; assay: Neutrophils counts in mice; type: in vivo; conditions: mice blood, 10th day post-injection, neutrophils among white blood cells
Protocol: On the 10th day after injection of BLV1H12-bGCSF fusion antibodies into mice for PK study, blood samples were drawn from the mice and stained using the Diff Quick Staining Kit (Thermo Fisher Scientific, IL). Neutrophils and white blood cells were counted under microscope and the percentages of neutrophils were analyzed. FIGS. 12A-12B and Table 12 show proliferative activities of BLV1H12-bGCSF fusion antibodies on mice neutrophils that are blood stained and counted at the 10th day post-injection.

[4] = system: Mouse NFS-60 cells; assay: Proliferation assay on mouse NFS-60 cells (AlamarBlue); type: cell-based; conditions: 72 hours
Protocol: Mouse NFS-60 cells were obtained from American Type Culture Collection (ATCC), VA, and cultured in RPMI-1640 medium supplemented with 10% fetal bovine serum (FBS), 0.05 mM 2-mercapoethanol and 62 ng/ml human macrophage colony stimulating factor (M-CSF). For proliferation assay, mouse NFS-60 cells were washed three times with RPMI-1640 medium and resuspended in RPMI-1640 medium with 10% FBS and 0.05 mM 2-mercapoethanol at a density of 1.5×10^5 cells/ml. In 96-well plates, 100 μl of cell suspension was added into each well, followed by the addition of varied concentrations of bGCSF, BLV1H12 antibody, and the immunoglobulin constructs described herein, Equal volume of PBS buffer was added into the control wells. The plates were incubated at 37° C. in a 5% CO2 incubator for 72 hours. Cells were then treated with AlamarBlue (Invitrogen) ( 1/10 volume of cell suspension) for 4 hours at 37° C. Fluorescence at 595 nm for each well was read to indicate the cell viability.

[5] = system: NS2-3 non-structural proteins of BVDV; assay: Immunocytometric analysis of HEK 293A cells transfected with BVDV antigens; type: binding; conditions: 10 μg/ml antibody
Protocol: Additionally, binding of the chimeric recombinant antibodies to BVDV antigens was evaluated by immunocytometric analysis of transfected human embryonic kidney (HEK) 293A cells (Invitrogen), as previously described (see, e.g., Njongmeta et al. (2012) Vaccine 30:1624-1635). Briefly, HEK 293A monolayers grown in 6-well tissue culture plates were transfected with 2 μg/well of plasmid (pcDNA3.3, Invitrogen) encoding BVDV antigens (N^pro, E2, or non-structural proteins NS2-3) using Lipofectamine 2000 reagent (Invitrogen), and incubated for 48 hr at 37° C. with 5% CO2. The monolayers were fixed with ice-cold 100% methanol for 10 minutes, rinsed with PBS, and after blocking for 1 hr with PBS containing 5% fetal bovine serum (blocking buffer), the monolayers were incubated at room temperature for 1 hr with 10 μg/ml of a mouse anti-FLAG M2-alkaline phosphatase (AP)-conjugate (Sigma) in blocking buffer or 10 μg/ml of the chimeric recombinant antibodies (H12 or B8). […] Following washes in blocking buffer, the AP activity in all the wells was detected using Fast Red AS-MX substrate (Sigma). […]

[6] = system: Parental U2OS; assay: Flow cytometry binding to parental cells; conditions: cell culture supernatant containing expressed IgG, anti-Human Fc detection
Protocol: (§1) Briefly, a cell line expressing functionally validated CXCR1 derived from U2OS cells was obtained from DiscoveRx and cultured per manufacturer's instructions (Cat#93-0226C3, DiscoveRx Corporation, Freemont, Calif.). The parental cell line U20S was obtained from ATCC and cultured under the same conditions as the CXCR1 cells. Cell culture supernatants from Example 2 above were then tested for binding to cells by flow cytometry. The adherent U20S or CXCR1-U20S cells were dissociated with Accutase (Innovative Cell Technologies, Inc., San Diego, Calif.), neutralized with an equal volume of media containing 10% serum, centrifuged at 1000 g, and resuspended in PBS with 2% BSA. Next, cells were dispensed into microtiter plates to achieve between 30,000 to 300,000 cells per well, centrifuged again, and resuspended in cell culture supernatant containing expressed IgG, or a dilution of IgG-containing cell culture supernatant. A fluorescent-conjugated anti-Human Fc antibody was used to detect binding of the expressedBLV1H12-IL8 fusion proteins to cells.

[7] = biological target: T1, CXCR1-U2OS (Homo sapiens, UniProt P25024); assay: Flow cytometry binding to CXCR1 expressing cells
T1 construct: host or cells: U2OS-derived CXCR1 cell line, purchased
T1 sequence (P25024 1-350): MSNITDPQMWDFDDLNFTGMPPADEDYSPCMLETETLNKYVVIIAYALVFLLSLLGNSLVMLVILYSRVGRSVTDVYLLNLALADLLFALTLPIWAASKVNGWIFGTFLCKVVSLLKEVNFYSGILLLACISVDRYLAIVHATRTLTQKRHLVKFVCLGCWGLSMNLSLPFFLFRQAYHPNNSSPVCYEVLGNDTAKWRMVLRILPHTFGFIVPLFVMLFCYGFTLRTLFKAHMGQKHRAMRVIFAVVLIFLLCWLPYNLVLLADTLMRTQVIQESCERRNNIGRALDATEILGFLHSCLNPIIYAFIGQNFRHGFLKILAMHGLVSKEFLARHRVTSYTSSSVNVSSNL
Protocol: as §1

B1: bGCSF: bovine G-CSF (granulocyte colony-stimulating factor) (protein, listed as Bos taurus)
chain: TPLGPARSLPQSFLLKCLEQVRKIQADGAELQERLCAAHKLCHPEELMLLRHSLGIPQAPLSSCSSQSLQLTSCLNQLHGGLFLYQGLLQALAGISPELAPTLDTLQLDVTDFATNIWLQMEDLGAAPAVQPTQGAMPTFTSAFQRRAGGVLVASQLHRFLELAYRGLRYLAEP
modifications: bGCSF
[1]; 0.55886 ng/mL
  Number of CD45RA− CD41−: 7354
[1]; 1.67657 ng/mL
  Number of CD45RA− CD41−: 9776
[1]; 5.02972 ng/mL
  Number of CD45RA− CD41−: 12700
[1]; 15.08916 ng/mL
  Number of CD45RA− CD41−: 13200
[1]; 45.26749 ng/mL
  Number of CD45RA− CD41−: 13700
[1]; 135.80247 ng/mL
  Number of CD45RA− CD41−: 13300
[1]; 407.40741 ng/mL
  Number of CD45RA− CD41−: 13700
[1]; 1222.22222 ng/mL
  Number of CD45RA− CD41−: 14100
[1]; 3666.66667 ng/mL
  Number of CD45RA− CD41−: 13100
[1]; 11000 ng/mL
  Number of CD45RA− CD41−: 13800
[2]; 0.5 hour
  Percentage (normalized to maximal concentration at the first time point, 30 min): 100.00%
[2]; 1 hour
  Percentage (normalized to maximal concentration at the first time point, 30 min): 79.52%
[2]; 3 hour
  Percentage (normalized to maximal concentration at the first time point, 30 min): 56.81%
[2]; 6 hour
  Percentage (normalized to maximal concentration at the first time point, 30 min): 14.94%
[2]; 24 hour
  Percentage (normalized to maximal concentration at the first time point, 30 min): 4.08%
[2]; 48 hour
  Percentage (normalized to maximal concentration at the first time point, 30 min): 0.00%
[2]; 72 hour
  Percentage (normalized to maximal concentration at the first time point, 30 min): 0.00%
[3]
  Percentage of Neutrophil: 16.48
[4]; 0.09145 ng/mL
  F.I. (AlamarBlue fluorescence at 595 nm, cell viability): 1214
[4]; 0.27435 ng/mL
  F.I. (AlamarBlue fluorescence at 595 nm, cell viability): 1360.925
[4]; 0.82305 ng/mL
  F.I. (AlamarBlue fluorescence at 595 nm, cell viability): 1761
[4]; 2.46914 ng/mL
  F.I. (AlamarBlue fluorescence at 595 nm, cell viability): 2101
[4]; 7.40741 ng/mL
  F.I. (AlamarBlue fluorescence at 595 nm, cell viability): 2405
[4]; 22.22222 ng/mL
  F.I. (AlamarBlue fluorescence at 595 nm, cell viability): 2646
[4]; 66.66667 ng/mL
  F.I. (AlamarBlue fluorescence at 595 nm, cell viability): 2812.098
[4]; 200 ng/mL
  F.I. (AlamarBlue fluorescence at 595 nm, cell viability): 3087.144

B2: hGCSF: human G-CSF (protein, UniProt P09919 31-207, looked up)
Granulocyte …: TPLGPASSLPQSFLLKCLEQVRKIQGDGAALQEKLVSECATYKLCHPEELVLLGHSLGIPWAPLSSCPSQALQLAGCLSQLHSGLFLYQGLLQALEGISPELGPTLDTLQLDVADFATTIWQQMEELGMAPALQPTQGAMPAFASAFQRRAGGVLVASHLQSFLEVSYRVLRHLAQP
[1]; 0.05081 ng/mL
  Number of CD45RA− CD41−: 4175
[1]; 0.15242 ng/mL
  Number of CD45RA− CD41−: 3651
[1]; 0.45725 ng/mL
  Number of CD45RA− CD41−: 3671
[1]; 1.37174 ng/mL
  Number of CD45RA− CD41−: 4299
[1]; 4.11523 ng/mL
  Number of CD45RA− CD41−: 5900
[1]; 12.34568 ng/mL
  Number of CD45RA− CD41−: 7784
[1]; 37.03704 ng/mL
  Number of CD45RA− CD41−: 10500
[1]; 111.11111 ng/mL
  Number of CD45RA− CD41−: 12200
[1]; 333.33333 ng/mL
  Number of CD45RA− CD41−: 14100
[1]; 1000 ng/mL
  Number of CD45RA− CD41−: 13900
[4]; 0.09145 ng/mL
  F.I. (AlamarBlue fluorescence at 595 nm, cell viability): 1266.554
[4]; 0.27435 ng/mL
  F.I. (AlamarBlue fluorescence at 595 nm, cell viability): 1478.287
[4]; 0.82305 ng/mL
  F.I. (AlamarBlue fluorescence at 595 nm, cell viability): 1752.216
[4]; 2.46914 ng/mL
  F.I. (AlamarBlue fluorescence at 595 nm, cell viability): 2224.028
[4]; 7.40741 ng/mL
  F.I. (AlamarBlue fluorescence at 595 nm, cell viability): 2587.222
[4]; 22.22222 ng/mL
  F.I. (AlamarBlue fluorescence at 595 nm, cell viability): 2751.249
[4]; 66.66667 ng/mL
  F.I. (AlamarBlue fluorescence at 595 nm, cell viability): 2815.37
[4]; 200 ng/mL
  F.I. (AlamarBlue fluorescence at 595 nm, cell viability): 2948.509

B3: H12 (protein, listed as Bos taurus)
chain: CVIVHQKTTQQSSCPAGFRDCVACTPGPESCCRSGCDGARRRVGLRYFFDSTSPITTYTYEHHIDAW
modifications: H12
[5]; HEK293A cells transfected with the NS2-3 non-structural proteins of BVDV
  binding to HEK293A cells transfected with NS2-3: binds NS2-3 on cells; also recorded: strongly binds
[5]; untransfected HEK293A cells
  binding to untransfected cells: weakly bound

B4: BLV1H12-IL8: human IL-8 (amino acids 26-99) replacing the knob domain of BLV1H12; heavy chain variable region SEQ ID NO: 38 (antibody)
VH: QVQLRESGPSLVKPSQTLSLTCTASGFSLSDKAVGWVRQAPGKALEWLGSIDTGGNTGYNPGLKSRLSITKDNSKSQVSLSVSSVTTEDSATYYCTSVHQETKKYQSPRSAKELRCQCIKTYSKPFHPKFIKELRVIESGPHCANTEIIVKLSDGRELCLDPKENWVQRVVEKFLKRAENSGSGSYTYNYEWHVDVWGQGLLVTV
light: QAVLNQPSSVSGSLGQRVSITCSGSSSNVGNGYVSWYQLIPGSAPRTLIYGDTSRASGVPDRFSGSRSGNTATLTISSLQAEDEADYFCASAEDSSSNAVFGSGTTLTVLGQPKSPPSVTLFPPSTEELNGNKATLVCLISDFYPGSVTVVWKADGSTITRNVETTRASKQSNSKYAASSYLSLTSSDWKSKGSYSCEVTHEGSTVTKTVKPSECS
[6]
  Median Arbitrary Fluorescence Units (AFU): 76 AFU
[7]
  ratio of median fluorescence (IgG binding) of CXCR1-U2OS cells versus U2OS parental cells: has specificity for CXCR1
[7]; CXCR1-U2OS cells, cell culture supernatant containing expressed IgG, anti-Human Fc detection
  Median Arbitrary Fluorescence Units (AFU): 707 AFU
